Measurements taken from US20220235143A1.
pKd: −log10 of the molar value.

Columns and labels:
[1] = target: MUC16 c114 expressed on transfected SKOV3 cells (SKOV3^c114) (human); assay: Lindmo cell-binding assay on SKOV3^c114 cells
[2] = target: MUC16 c114 expressed on transfected SKOV3 cells (SKOV3^c114) (human); assay: saturation binding of 89Zr-DFO antibody on SKOV3^c114 cells
[3] = target: MUC16 c114 expressed on transfected SKOV3 cells (SKOV3^c114) (human); assay: Lindmo cell-binding assay, 89Zr-DFO antibody on SKOV3^c114 cells
[4] = target: MUC16 c114 expressed on transfected SKOV3 cells (SKOV3^c114) (human); assay: saturation binding assay, 89Zr-labeled antibody on SKOV3^c114 cells, cell bound activity (counts); right panel
[5] = target: MUC16 as naturally expressed on ovarian cancer cell lines (OVCAR3; also OVCA-433, CAOV3) (human); assay: FACS surface staining of OVCAR3 cells, goat anti-mouse IgG2b-PE detection; same cells: secondary alone 65.8, cells only 24.6
[6] = target: MUC16 as naturally expressed on ovarian cancer cell lines (OVCAR3; also OVCA-433, CAOV3) (human); assay: FACS surface staining of OVCAR3 cells, goat anti-mouse IgG2b-PE detection; same cells: secondary alone 1.95, cells only 0.34
[7] = target: MUC16 c114 expressed on transfected SKOV3 cells (SKOV3^c114) (human); assay: FACS surface staining of SKOV3-c114 transfectant cells, goat anti-mouse IgG2b-PE detection; same cells: secondary alone 138, cells only 36.8; 4H11 on vector control SKOV3-phrGFP 162
[8] = target: MUC16 c344 expressed on transfected cells (SKOV3-phrGFP-MUC16c344, A2780-phrGFP-MUC16c344) (human); assay: FACS surface staining of SKOV3-c344 transfectant cells, goat anti-mouse IgG2b-PE detection; same cells: secondary alone 106, cells only 49.2; 4H11 on vector control SKOV3-phrGFP 162
[9] = target: MUC16 c114 expressed on transfected SKOV3 cells (SKOV3^c114) (human); assay: FACS surface staining of A2780-c114 transfectant cells, goat anti-mouse IgG2b-PE detection; same cells: secondary alone 0.10, cells only 0.01; 4H11 on vector control A2780-phrGFP 0.88
[10] = target: MUC16 c344 expressed on transfected cells (SKOV3-phrGFP-MUC16c344, A2780-phrGFP-MUC16c344) (human); assay: FACS surface staining of A2780-c344 transfectant cells, goat anti-mouse IgG2b-PE detection; same cells: secondary alone 0.68, cells only 0.07; 4H11 on vector control A2780-phrGFP 0.88
[11] = target: MUC16 c114 expressed on transfected SKOV3 cells (SKOV3^c114) (human); assay: FACS surface staining of SKOV3-c114 transfectant cells, goat anti-mouse IgG2b-PE detection; same cells: secondary alone 6.80, cells only 0.14; 4H11 on vector control SKOV3-phrGFP 2.80
[12] = target: MUC16 c344 expressed on transfected cells (SKOV3-phrGFP-MUC16c344, A2780-phrGFP-MUC16c344) (human); assay: FACS surface staining of SKOV3-c344 transfectant cells, goat anti-mouse IgG2b-PE detection; same cells: secondary alone 0.53, cells only 0.04; 4H11 on vector control SKOV3-phrGFP 2.80
[13] = target: MUC16 c114 expressed on transfected SKOV3 cells (SKOV3^c114) (human); assay: FACS surface staining of A2780-c114 transfectant cells, goat anti-mouse IgG2b-PE detection; same cells: secondary alone 42.3, cells only 24.6; 4H11 on vector control A2780-phrGFP: bar at the level of secondary alone, label overlapped
[14] = target: MUC16 c344 expressed on transfected cells (SKOV3-phrGFP-MUC16c344, A2780-phrGFP-MUC16c344) (human); assay: FACS surface staining of A2780-c344 transfectant cells, goat anti-mouse IgG2b-PE detection; same cells: secondary alone 69.8, cells only 33.7; 4H11 on vector control A2780-phrGFP: bar at the level of secondary alone, label overlapped

Chain of MUC16 c114 expressed on transfected SKOV3 cells (SKOV3^c114) (human) (chain, as listed by the source limits assumed): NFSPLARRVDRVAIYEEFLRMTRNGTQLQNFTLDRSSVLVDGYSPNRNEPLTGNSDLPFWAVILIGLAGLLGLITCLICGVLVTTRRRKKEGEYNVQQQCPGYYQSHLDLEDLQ
Chain of MUC16 c344 expressed on transfected cells (SKOV3-phrGFP-MUC16c344, A2780-phrGFP-MUC16c344) (human) (chain, as listed by the source limits assumed): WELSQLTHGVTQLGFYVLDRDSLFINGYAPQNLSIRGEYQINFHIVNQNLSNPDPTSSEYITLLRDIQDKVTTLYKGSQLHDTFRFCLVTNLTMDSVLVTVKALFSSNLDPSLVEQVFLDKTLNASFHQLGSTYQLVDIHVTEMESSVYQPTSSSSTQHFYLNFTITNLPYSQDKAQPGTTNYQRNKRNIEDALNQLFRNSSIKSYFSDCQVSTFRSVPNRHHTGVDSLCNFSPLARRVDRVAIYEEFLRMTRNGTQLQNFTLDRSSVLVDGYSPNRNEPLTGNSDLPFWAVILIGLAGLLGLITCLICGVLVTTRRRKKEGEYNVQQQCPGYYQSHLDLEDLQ

immunoreactive fraction [1]: > 80%
pKd [2]: 8.19
Immunoreactive Fraction (%) [3]: 88.3%
EC50 (read off the curve) [4]: 6 nM
pKd [4]: 8.20
Geometric Mean PE Fluorescence (Relative Number) [5]: 3050
% PE Positive [6]: 98.5%
Geometric Mean PE Fluorescence (Relative Number) [7]: 2080
Geometric Mean PE Fluorescence (Relative Number) [8]: 1580
% PE Positive [9]: 71.3%
% PE Positive [10]: 93.8%
% PE Positive [11]: 95.9%
% PE Positive [12]: 41.2%
Geometric Mean PE Fluorescence (Relative Number) [13]: 544
Geometric Mean PE Fluorescence (Relative Number) [14]: 777
Substance: 4H11 murine monoclonal antibody
